In US20170209564A1:

Tests used:
Conditions in all cases: remark: other sources report otherwise
[1] = target: T1, H1-mini2-cluster1+5+6-GCN4 without leader sequence and with FLAG-thrombin-foldon-HIS; test: ELISA, coated CR6261, P. pastoris medium; average of the parental
74H9 = test: ELISA signal over HTRF expression signal, HEK293F
6E12 = test: ELISA signal over HTRF expression signal, HEK293F
7A7 = test: ELISA signal over HTRF expression signal, HEK293F
91C4 = test: ELISA signal over HTRF expression signal, HEK293F
171E5 = test: ELISA signal over HTRF expression signal, HEK293F
181H9 = test: ELISA signal over HTRF expression signal, HEK293F
113E7 = test: ELISA signal over HTRF expression signal, HEK293F
86B4 = test: ELISA signal over HTRF expression signal, HEK293F
115A1 = test: ELISA signal over HTRF expression signal, HEK293F
71C4 = test: ELISA signal over HTRF expression signal, HEK293F
127H1 = test: ELISA signal over HTRF expression signal, HEK293F
131B5 = test: ELISA signal over HTRF expression signal, HEK293F
220C9 = test: ELISA signal over HTRF expression signal, HEK293F
71H2 = test: ELISA signal over HTRF expression signal, HEK293F
[2] = target: T1, H1-mini2-cluster1+5+6-GCN4 without …; test: ELISA signal over HTRF expression signal, P. pastoris; the reference itself

B1: CR6261 (antibody, V domains shown)
VH: EVQLVESGAEVKKPGSSVKVSCKASGGPFRSYAISWVRQAPGQGPEWMGGIIPIFGTTKYAPKFQGRVTITADDFAGTVYMELSSLRSEDTAMYYCAKHMGYQVRETMDVWGKGTTVTVSS
VL: QSVLTQPPSVSAAPGQKVTISCSGSSSNIGNDYVSWYQQLPGTAPKLLIYDNNKRPSGIPDRFSGSKSGTSATLGITGLQTGDEANYYCATWDRRPTAYVVFGGGTKLTVLG
CR6261 binding signal [1]: 238000 | fold increase of ratio over parental SEQ ID NO: 6 (74H9): 4.37 | ratio (binding signal/HTRF signal) (74H9): 75.8 | fold increase of ratio over parental SEQ ID NO: 6 (6E12): 2.85 | ratio (binding signal/HTRF signal) (6E12): 49.5 | fold increase of ratio over parental SEQ ID NO: 6 (7A7): 1.47 | ratio (binding signal/HTRF signal) (7A7): 25.5 | fold increase of ratio over parental SEQ ID NO: 6 (91C4): 1.98 | ratio (binding signal/HTRF signal) (91C4): 34.4 | fold increase of ratio over parental SEQ ID NO: 6 (171E5): 1.62 | ratio (binding signal/HTRF signal) (171E5): 28.1 | fold increase of ratio over parental SEQ ID NO: 6 (181H9): 2.11 | ratio (binding signal/HTRF signal) (181H9): 36.6 | fold increase of ratio over parental SEQ ID NO: 6 (113E7): 2.87 | ratio (binding signal/HTRF signal) (113E7): 49.9 | fold increase of ratio over parental SEQ ID NO: 6 (86B4): 3.44 | ratio (binding signal/HTRF signal) (86B4): 59.6 | fold increase of ratio over parental SEQ ID NO: 6 (115A1): 3.14 | ratio (binding signal/HTRF signal) (115A1): 54.5 | fold increase of ratio over parental SEQ ID NO: 6 (71C4): 1.72 | ratio (binding signal/HTRF signal) (71C4): 29.9 | fold increase of ratio over parental SEQ ID NO: 6 (127H1): 4.25 | ratio (binding signal/HTRF signal) (127H1): 73.8 | fold increase of ratio over parental SEQ ID NO: 6 (131B5): 2.36 | ratio (binding signal/HTRF signal) (131B5): 41 | fold increase of ratio over parental SEQ ID NO: 6 (220C9): 3 | ratio (binding signal/HTRF signal) (220C9): 52.1 | fold increase of ratio over parental SEQ ID NO: 6 (71H2): 3.61 | ratio (binding signal/HTRF signal) (71H2): 62.7 | fold increase of ratio over parental SEQ ID NO: 6 [2]: 1
